According to the domain aggregation screens of Martell et al. (2025):

Assay: soluble fraction after stress (log2 fold change); higher = more stays soluble; pooled small domains, quantitative proteomics
Conditions: stress: 75 degC
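Also: 20 min heating vs room temperature control held 20 min.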

Row | Sequence | soluble fraction (log2)
1 | HMTNVETLVRMRLRSIRTTLGYSLDEIAERSNLSASTVSRIETGKRALSIDVLVPLAAALQVSVDDLLRAE | -2.92
2 | HMKISELAKKVIASGRVTQWAKHPHIYFVNGMRKVAIELDVNGVFSISMRYYPYDPADRELVENLIRGD | -2.67
3 | HMIKEVEYSQFLQMTDQGEVGKVEINEQENSILFTDKAEKNIYKTGMVEDAELSMRLYEAGIPFSGQI | 0.101
4 | HMDSAVLQKHLVKLIELHAPIKARNLAKILADEFGKHVDRSAVNSALYSLKAERKVEVNSSYEWSLD | -2.25
5 | HMGPDALSIGRRVRQVRTARGMTLDELAAAVSRAPSQLSMIETGKREPKLSLLQAIARALGTTIDALLT | -0.856
6 | HMRESLSEAERHPRYLEGEDVVRMFLLMGDLSRVEAEVIALQWNAQEADRVGLPQDAKVFRTRAR | -0.523
7 | HMDGMNEELYQKFFALVGNPDEGKRISQAKAAQALGYSSAVVSAYKNRTYNGNIKAFEDAVQAWLKREERR | 0.17
8 | HMQRLSRREIEVLHWIAEGKSDWQIGQILSISAKTVNYHTENLKRKFGVATRMQAVVSAIKQGAFVPGE | -4.11
9 | HMDPYEYQLELEKLINNATELNKKYNYDPLKDKILAADAVKNSLETYVLQNYIVALENEIKQTLNQYQIL | -0.685
10 | HMEEVVIPDLAGLTEEEATKVLMAKELKLKVSGSQHSDIEKGLIISQDPPAGEKGAKNSQVAVVTSSG | 0.0827
11 | HMIHTYVETRKVGNNDGLIRVDNKYYRVPQHLVGMKVQIQIDEATISVLQGGVMVATLDKTADVFNPQA | -3.24
12 | HMDDFPLKRGSKGNRVTLLQNALVKKYGAGILPKYGVDGMFGKEVEAALVHAKIPTTINEANYTKIV | -0.0514
13 | HMATVGENIRRYRKAQNLSAAKLAEKVGLTQGAILHYERGIRTPGISQLEKIAHALNVSPRM | -0.144
14 | HMLEPGIAVLKTLMSQYRLGVADLPELGSKSNVSKLLNAVEGKKLTRQHIEALSKRFAVSPALF | -0.148
15 | HMYQPLRDVIFETLRKAIVSGDIKPGERLMEVSLANQMGVSRTPVREAIRRLEAEGLVTMTPRKGTHVAE | -0.891
16 | HMAQTEIPYSEFLREVGNGQIKSVIIEGSEITGFYKTSGTSFNVVAPDDPKLVERLMDQGVEVRAQPT | 0.176
17 | HMMTLEESYKLLQVSHNASDIEITKAFKKLALLYHPDKNPSNIDWANKAMASINVAYNTIITHRFKEK | -1.38
18 | HMGDLAAAGNHTLEVMGFPQHPDESYRHFVGNGIPKLIERMLPAGHDKETEQKAYDIFMEYYSAHK | 0.609
19 | HMERGEFQKLGRATLEQTLARAGKTLAEVSLKAMLETFAFAAEEDLYEALGRGRVSAAKVGETLFPALKGR | -0.85
20 | HMRTAFPQLTERELEILDLIAAGRNNAQIASALYLAPKTVRNNVSNILAKLQATDRAEAIIRARDAGLGG | -0.201
21 | HMENINIRNMGIRAVEAAIISLSPDQRTFTWGATNKKLVTVPYEENPYSALAAFFKTDDGIEIYDAIEKRL | -1.08
22 | HMDIVGAINKIESMKQDRYLAMHPYSITHSADGYYRTYLPADDGKRKQIKKKSKSDLEKVVIDYWTKRS | -0.242
23 | HMFRPDYYEILQVDRHASPEVITAAYRQLLSIYNSEQDGNKQMIKLIQEAYGVLGDSQDRWLYDSWLDNN | -1.34
24 | HMNNSSIGERLKYQRKIKGYSQEELADRTNVTVRTIQRIEKEEVSPHLNTIKLLAIALDIEVDELVAL | -2.68
25 | HMDDATDLPYQEFRTQVSDGQVKIAQFNNNTGKITFESISGDKFKTSGPLELSSDDERLFLENIEDFKFFT | 0.0939
26 | HMQVQHVWNRLKRPNGDVLYEINRDHPLVSASLDAAADRGAIETLLRQIEQSLPVNQLYVDMNADEHFE | -0.602

Row | Sequence | soluble fraction (log2)
27 | HMNNPNFAIQKYVTGSDIKRVRKTLRLTQKKFAELVGVSKATMERWETKEDKITGPVVLLLKILEDHPEY | -1.55
28 | HMSLPALSAEEQKIVDALHGTPKGVDDIIAETGISSGALLRSLTMLELKKVIVRLPGNRIAPK | -1.53
29 | HMVRVSELAIEPRLVVEETATGFVGAVVRYANGLIELEDRHGAVRTFPLGPGYLVDGRPVSLVKPT | -0.577
30 | HMKSKHENLIDGLLKMISSMKPHDRLTPERQLAEEWAVSRMTLRRALEVLQFQGKIYTVPSSGLFVAEPK | -2.89
31 | HMKKYEFIEDLPGVGPATAQKLRDLGYHTVESLAMATARELEPIGVGEKKAFSMIEAARSAIGFS | 0.284
32 | HMETTEELISKTVPISYADMAALTGILDGVKSARGDIQVDDRTSTIIIHDIQSSIDEMMRLIKILD | -1.04
33 | HMYVKIAADAAMPYTIKRVVTDYSSAALDAAYDGSLPKWLTISSSTKDAGSGLYRHEIIYTVTAHPE | -0.666
34 | HMKQLQIPYSFAKRHGVLLRYEGDQAFIVRRDNTSMLALQEARRLLGHPAHYLLYSEQEFNQLLSASFA | -2.69
35 | HMAYLTVPAVIAKDTKKSIQLLESKGFEVVIQDSIYTDTLARGTVIKQLPDPNATVKINRTVYLTVNRYTP | -2.41
36 | HMGNTMIVILKHEARQEQIDRLKQFLLGMGLRIDESKGENSTILGLVGDTTRVDADLISSLDAVEAVRRV | -0.891
37 | HMSYPTAVTQTTLNVRTGPGTQYERLGAFVENTEVIVLTRQPEWIQVRGMSGDKAIIGWVSARYLQMNP | -2.21
38 | HMEAVIGGIYRHYKGNNYKLLAVATHSETLEKMAVYQALYGEMGIWVRPLAMFMETIEKDGQSLKRFE | -2.67
39 | HMNTDIHRLLDEAFVRVDMTPDAQHLKEEIRANLVARVDELEASGVPSADAARRAIAELGDVRELL | 0.291
40 | HMYMKLSVKDAALFLSVSPETVYRWVKQEEIPYHTVNDQLRFNRAELLEWATARSLEVSPDLFVP | -3.84
41 | HMFDEDKLIISIGSKVRIIREPYFGTIGKVVELPPELVKMDTEAMLRVAIIKLDDGEKVTIPRANLEVILS | -2.43
42 | HMGPNYYDILEIPTDASPSEITQAFRKKALEWHPDKNPNNLEEATSRFIEIVEAYRVLSSKDSKLQYDTG | -0.213
43 | HMSDVLPEAILERRLVKKGNRAVPQVLIKWTKLPATSATWEDFYVLQQRFPTALAWGQAPSPGGQM | -0.462
44 | HMRMTLKNKVEDIVHILRKDKQTSLSAILGDNTDRIQTIVVFLAILELVKQHLIKTDQNANFGDINLFPED | -0.000181
45 | HMSKKAIVINLLKRPDGASLKDIMQATYWQAHSVRGFISGSLTKKMGLNVESFKRPDGERAYRIN | -2.47
46 | HMLNSLDATQRLKLNKDGVVVFNFGKYVDQSVIDIFKKEKGYYNWMMSKDFSQQVKNIITKIYQEEIIG | -1.08
47 | HMEAKKVIAVHIIGEINKPGIVELEEGARVIDAIKKAGGTTEKADLAQINLAYILKDGQKIYIPNTEDN | 0.254
48 | HMEISAIIGNNLQQLRKEQGLSLDQLALKTGVSKAVLSQLENGKANPTINTIWKIATALHVTYSALLEPP | -1.15
49 | HMTGQVASMVERLAQRLKDQPQDAEGWAMLARSYSVLGRHPEALQAYEKALALRKDDANLLADYADSLA | -0.23
50 | HMKSKPRVPFGSLVEMGILKPGSILFDPKGKIKTKVMVDGSIKYKETEGSIHKVAAQIMGTESYNGWTYW | 0.488
51 | HMKRELFVEPGMRLEHTPSKTSGPVVSFIEGVIVVIKDQLGSEHRFDPVPGFFRHEGDLVALRSPLL | -0.996
52 | HMHQGTIEVGSIVHIEGQKALGTILSLTQREAIVGLGALKTTIPLKRLHLATEAEARRHKKSVTPQEAV | -0.66

Row | Sequence | soluble fraction (log2)
53 | HMPMTLGENIARLRTQKDWSQGDLADALGISRQSISKWETDTSIPELEKLIKLSELFGVTLDQLVRGE | -0.406
54 | HMLGARIAALRRQAGMNQGELAKKLGISPSTVGMYEQGRREPSAEMLVRLAEAFSVSTDFLLT | -1.1
55 | HMVDGAHKQQAAVQALTPALKVLAAAPEGKKGQAIQALRAVLKQHGRWLDDATAQQVHEQLLAAGDAQGWQ | 0.478
56 | HMGGWEEGVYVVREGDTLSDIVHDAVKGTEIHPDFILNAIVRVNPSAFVRGNPSWMLAGKKIK | -0.0613
57 | HMAKIKVFELKNQINSLIKNKIESKDIIDFIETNFGVKKSHSSALEENEANFIKNYFVHADKA | -0.264
58 | HMLEKDIGKAITILRKSYQLSISAFSMRTGYSRVHISEVESGKRKATDELISVIRNVFHLDSNWPF | -1.52
59 | HMVNLKQVELREHHPWVGHKIKELDISRHTLIVMIRRGDNAIVPNGDTLIKSGDIVFVFSKR | -2.76
60 | HMGGVIEDDRGQWAHPGEVTKINSNNITMKGVDFPVLGISDTGDKKMMQPGKDYKFDGNSVTEYPMA | -0.24
61 | HMAPGASEVPDLTSLPAREALLRLTKLGLLPEMEGTGRLVRQQPAAGTRVPKGSKVHLVFEPG | 0.123
62 | HMQPEKELAPLIGQRVSVRLHDGDGGYRDLLGELESPDSIRKKNGEIAFFDPAKIAALRVVV | 0.0667
63 | HMLISKNLLGFTIKNTSGVTFGTLKDIMWLPSNDVYVIDNNGKEYLIPVISEIVKSINYDKGSITIFP | -0.4
64 | HMEQLNKNIKFDNFLESLNFINKVSEVAEEENHHPDLKFGWGYADITIFTHAIKGLSEGDFVLAAKIDVI | 0.19
65 | HMPRDQQENIYLLEKGKRLYEEHLGDQRQIIGHRIMIFERILESQDHAQIRRAQSEFAEFLSHYDG | -0.8
66 | HMNVPYEMVTQNGEVFYKYKVQPGEGVFAVSRTFSVSVAEILRVNPEANKGLKNGQVLLIPVPKDMIA | -1.71
67 | HMATVELELKPEELRAGMILTKDLISGTGMMLLNKGVTLDNVKVEAIQRYYQLDPPLHGVFALVHGK | -1.32
68 | HMIDIDTILKKYKPGRRDELIPLMQEIQEVYGHLSEEAVVKIGTYVGLSTTKIYGLATFYDQFRF | -1.76
69 | HMNQIDEATAATITTLNFLNTNSEFKIPVGDTATRPGTPAIGMMRFNSENDKAEIYVADFDGDGNPGWINL | -0.0556
70 | HMDEGQEHYVKETDLPFYSEADPASSVIFPLVLNQKLIEKERKDDWIRALEPTTGLVGWVLLKSLSPQQLS | -0.0643
71 | HMVLAEPLSERELDILRLLAAGDSNKEIAAVLYITEGTVKNHVTNILGKLDARDRTQAALRARELGL | -1.21
72 | HMKPVTVINFVGMTEEKAMTEAEKLGLVVGASSSEYSDEPAGTVIRQSISVSTEAKTGDNIYFTVSKGPE | 0.677
73 | HMQTKEVDYGTFMSMIDEKNIGTVEIGDSQIVFTDKDNKNLYETGVMNDPDLAQRLHDAGATFSS | 0.128
74 | HMGVEALTPRQREVLALMAQGRSNGWIAAELGLSEKAIVQHTSNIYDMLGLAVDADDHRRVLAVIHYLT | -1.19
75 | HMTMTKELGQRIRAERTARKMTQEELAERADLHPTYIGQVERGEKSLTIASLEKIVEGLGISFSDLFEN | 0.244
76 | HMSAPNPGQMHSWTDTQGRTLQATFIKADATTVTLNWNGRIVPIPLANLNAASQKLARELASAS | -0.443
